Experiment: MalA biochemical activity assays, mutants versus wild-type MalA
Description: Biochemical activity assays were performed in a 100 μL volume with the following components: 18 μM MalA, 54 μM HpaC flavin reductase,^3 100 μM FAD, 50 mM NaCl, 250 μM substrate, 5 mM NADH, and brought to total volume with reaction buffer (same as storage bufferNaBr). The chlorination reactions proceeded for 20 minutes and the bromination reactions proceeded overnight. The reactions were extracted with ethyl acetate ([…], in triplicate) and dried down under nitrogen gas. The dried extract was resuspended in LC/MS grade methanol to a concentration of around 10 μM for LC/MS analysis. High resolution mass spectrometry was performed using electrospray ionization on an Agilent quadrupole time-of-flight spectrometer (Q-TOF 6500 series). Biochemical activity was monitored via the following HPLC method using acetonitrile and water: 65% acetonitrile for 5 minutes, gradient over 10 minutes to 95% acetonitrile, 95% acetonitrile for 5 minutes, gradient over 2 minutes to 65% acetonitrile, 65% acetonitrile for 11 minutes to re-equilibrate with a flow rate of 0.3 mL/minute, monitoring at 240 nm on a Phenomenex Lux cellulose-3, cellulose Tris (4-methylbenzoate) 250×4.6 mm column.

| Molecule | halogenase activity relative to wild-type MalA (chlorination of compound 2) | other results |
| --- | --- | --- |
| MalA′: flavin-dependent halogenase from M. graminicola, generated by site-directed mutagenesis of malA: L276P/R428P (protein, UniProt L0E155 1-667, looked up, variant L276P R428P) Flavin-dependent halogenase …: MAPTPKYTFTERAAAGNLSDAEILNSNNPTGSELPDESDVVVGGAGIHGLIYALHASKYKPNNLKISVIEKNTRPGYKIGESTLPIFYTWCKLHGISAAYLLRLFGLKDGLCFYFLDRENQGQYTDFCSVGAPGLVLASLQIERPMSELLFTILAQRNGVNVYHGREVDFKSTVVQGGGQGNKIAVSRGKYDSTPKTIDSALFVDATGRFRQFCSKKAPRHRFDGWNCNAFWGYFTAPKDESKIPFDLYEGDHTNHLCFPEGWVWVIRLPSWEGSPIANLMDMVTYILECADAGVPGDELPSSEELARMFGLKFQWVTSIGFAVRNDVKYPEDLSAYGTREAEQKFNYFVQKYELLQQFMSNFELIENLYGPGTTWFIRKTLAYQSPVVSGPGWLAIGDACGFTNPLYSPGINVGMSTSTWAAQLSHPIVEIGKSAPADAAESSIRKLLVPYDDYCKSLVPALEQMNRFNYVCYRDTRLGPQVACLWQFFAGIERYLSDVNIETFAHYAIKWVWGAMVPEYQQVAQKCIEHIETVPLDERLPDAMVDELLAFSNRIKSAAVAADDFSLRWDAILRSFDRSLNFVEGKTSRDIYTRQCSGCGAWLQLRPDWKKCHSCGLLGTEPQTAVTFDPPLTAEEEALLYAAWNTAPKYDPSKELKLPTPTRPAA | essentially identical to MalA | – |
| MalA W263A: MalA flavin-dependent halogenase variant with W263A substitution (protein, UniProt L0E155 1-667, looked up, variant W263A) Flavin-dependent halogenase …: MAPTPKYTFTERAAAGNLSDAEILNSNNPTGSELPDESDVVVGGAGIHGLIYALHASKYKPNNLKISVIEKNTRPGYKIGESTLPIFYTWCKLHGISAAYLLRLFGLKDGLCFYFLDRENQGQYTDFCSVGAPGLVLASLQIERPMSELLFTILAQRNGVNVYHGREVDFKSTVVQGGGQGNKIAVSRGKYDSTPKTIDSALFVDATGRFRQFCSKKAPRHRFDGWNCNAFWGYFTAPKDESKIPFDLYEGDHTNHLCFPEGAVWVIRLPSWEGSLIANLMDMVTYILECADAGVPGDELPSSEELARMFGLKFQWVTSIGFAVRNDVKYPEDLSAYGTREAEQKFNYFVQKYELLQQFMSNFELIENLYGPGTTWFIRKTLAYQSPVVSGPGWLAIGDACGFTNPLYSPGINVGMSTSTWAAQLSHRIVEIGKSAPADAAESSIRKLLVPYDDYCKSLVPALEQMNRFNYVCYRDTRLGPQVACLWQFFAGIERYLSDVNIETFAHYAIKWVWGAMVPEYQQVAQKCIEHIETVPLDERLPDAMVDELLAFSNRIKSAAVAADDFSLRWDAILRSFDRSLNFVEGKTSRDIYTRQCSGCGAWLQLRPDWKKCHSCGLLGTEPQTAVTFDPPLTAEEEALLYAAWNTAPKYDPSKELKLPTPTRPAA | – | production of compound 1 relative to wild-type MalA (chlorination of compound 2): 5%; production of compound 3 relative to wild-type MalA (chlorination of compound 2): 50%; production of compound 4 relative to wild-type MalA (chlorination of compound 2): 60% |
| MalA W265A: MalA flavin-dependent halogenase variant with W265A substitution (protein, UniProt L0E155 1-667, looked up, variant W265A) Flavin-dependent halogenase …: MAPTPKYTFTERAAAGNLSDAEILNSNNPTGSELPDESDVVVGGAGIHGLIYALHASKYKPNNLKISVIEKNTRPGYKIGESTLPIFYTWCKLHGISAAYLLRLFGLKDGLCFYFLDRENQGQYTDFCSVGAPGLVLASLQIERPMSELLFTILAQRNGVNVYHGREVDFKSTVVQGGGQGNKIAVSRGKYDSTPKTIDSALFVDATGRFRQFCSKKAPRHRFDGWNCNAFWGYFTAPKDESKIPFDLYEGDHTNHLCFPEGWVAVIRLPSWEGSLIANLMDMVTYILECADAGVPGDELPSSEELARMFGLKFQWVTSIGFAVRNDVKYPEDLSAYGTREAEQKFNYFVQKYELLQQFMSNFELIENLYGPGTTWFIRKTLAYQSPVVSGPGWLAIGDACGFTNPLYSPGINVGMSTSTWAAQLSHRIVEIGKSAPADAAESSIRKLLVPYDDYCKSLVPALEQMNRFNYVCYRDTRLGPQVACLWQFFAGIERYLSDVNIETFAHYAIKWVWGAMVPEYQQVAQKCIEHIETVPLDERLPDAMVDELLAFSNRIKSAAVAADDFSLRWDAILRSFDRSLNFVEGKTSRDIYTRQCSGCGAWLQLRPDWKKCHSCGLLGTEPQTAVTFDPPLTAEEEALLYAAWNTAPKYDPSKELKLPTPTRPAA | drastic decrease in activity | – |
| E494A: MalA halogenase variant, Glu494 substituted with alanine (protein, UniProt L0E155 1-667, looked up, variant E494A) Flavin-dependent halogenase …: MAPTPKYTFTERAAAGNLSDAEILNSNNPTGSELPDESDVVVGGAGIHGLIYALHASKYKPNNLKISVIEKNTRPGYKIGESTLPIFYTWCKLHGISAAYLLRLFGLKDGLCFYFLDRENQGQYTDFCSVGAPGLVLASLQIERPMSELLFTILAQRNGVNVYHGREVDFKSTVVQGGGQGNKIAVSRGKYDSTPKTIDSALFVDATGRFRQFCSKKAPRHRFDGWNCNAFWGYFTAPKDESKIPFDLYEGDHTNHLCFPEGWVWVIRLPSWEGSLIANLMDMVTYILECADAGVPGDELPSSEELARMFGLKFQWVTSIGFAVRNDVKYPEDLSAYGTREAEQKFNYFVQKYELLQQFMSNFELIENLYGPGTTWFIRKTLAYQSPVVSGPGWLAIGDACGFTNPLYSPGINVGMSTSTWAAQLSHRIVEIGKSAPADAAESSIRKLLVPYDDYCKSLVPALEQMNRFNYVCYRDTRLGPQVACLWQFFAGIARYLSDVNIETFAHYAIKWVWGAMVPEYQQVAQKCIEHIETVPLDERLPDAMVDELLAFSNRIKSAAVAADDFSLRWDAILRSFDRSLNFVEGKTSRDIYTRQCSGCGAWLQLRPDWKKCHSCGLLGTEPQTAVTFDPPLTAEEEALLYAAWNTAPKYDPSKELKLPTPTRPAA | inactivated | – |
| E494Q: MalA halogenase variant, Glu494 substituted with glutamine (protein, UniProt L0E155 1-667, looked up, variant E494Q) Flavin-dependent halogenase …: MAPTPKYTFTERAAAGNLSDAEILNSNNPTGSELPDESDVVVGGAGIHGLIYALHASKYKPNNLKISVIEKNTRPGYKIGESTLPIFYTWCKLHGISAAYLLRLFGLKDGLCFYFLDRENQGQYTDFCSVGAPGLVLASLQIERPMSELLFTILAQRNGVNVYHGREVDFKSTVVQGGGQGNKIAVSRGKYDSTPKTIDSALFVDATGRFRQFCSKKAPRHRFDGWNCNAFWGYFTAPKDESKIPFDLYEGDHTNHLCFPEGWVWVIRLPSWEGSLIANLMDMVTYILECADAGVPGDELPSSEELARMFGLKFQWVTSIGFAVRNDVKYPEDLSAYGTREAEQKFNYFVQKYELLQQFMSNFELIENLYGPGTTWFIRKTLAYQSPVVSGPGWLAIGDACGFTNPLYSPGINVGMSTSTWAAQLSHRIVEIGKSAPADAAESSIRKLLVPYDDYCKSLVPALEQMNRFNYVCYRDTRLGPQVACLWQFFAGIQRYLSDVNIETFAHYAIKWVWGAMVPEYQQVAQKCIEHIETVPLDERLPDAMVDELLAFSNRIKSAAVAADDFSLRWDAILRSFDRSLNFVEGKTSRDIYTRQCSGCGAWLQLRPDWKKCHSCGLLGTEPQTAVTFDPPLTAEEEALLYAAWNTAPKYDPSKELKLPTPTRPAA | inactivated | – |
| E494D: MalA halogenase variant, Glu494 substituted with aspartate (protein, listed as Malbranchea graminicola, Wild-type MalA' protein, MalA halogenase variant, Glu494 substituted with aspartate) MAPTPKYTFTERAAAGNLSDAEILNSNNPTGSELPDESDVVVGGAGIHGLIYALHASKYKPNNLKISVIEKNTRPGYKIGESTLPIFYTWCKLHGISAAYLLRLFGLKDGLCFYFLDRENQGQYTDFCSVGAPGLVLASLQIERPMSELLFTILAQRNGVNVYHGREVDFKSTVVQGGGQGNKIAVSRGKYDSTPKTIDSALFVDATGRFRQFCSKKAPRHRFDGWNCNAFWGYFTAPKDESKIPFDLYEGDHTNHLCFPEGWVWVIRLPSWEGSPIANLMDMVTYILECADAGVPGDELPSSEELARMFGLKFQWVTSIGFAVRNDVKYPEDLSAYGTREAEQKFNYFVQKYELLQQFMSNFELIENLYGPGTTWFIRKTLAYQSPVVSGPGWLAIGDACGFTNPLYSPGINVGMSTSTWAAQLSHPIVEIGKSAPADAAESSIRKLLVPYDDYCKSLVPALEQMNRFNYVCYRDTRLGPQVACLWQFFAGIDRYLSDVNIETFAHYAIKWVWGAMVPEYQQVAQKCIEHIETVPLDERLPDAMVDELLAFSNRIKSAAVAADDFSLRWDAILRSFDRSLNFVEGKTSRDIYTRQCSGCGAWLQLRPDWKKCHSCGLLGTEPQTAVTFDPPLTAEEEALLYAAWNTAPKYDPSKELKLPTPTRPAA | slight activity | – |
| MalA H253A: MalA halogenase variant, His253 substituted with alanine (protein, UniProt L0E155 1-667, looked up, variant H253A) Flavin-dependent halogenase …: MAPTPKYTFTERAAAGNLSDAEILNSNNPTGSELPDESDVVVGGAGIHGLIYALHASKYKPNNLKISVIEKNTRPGYKIGESTLPIFYTWCKLHGISAAYLLRLFGLKDGLCFYFLDRENQGQYTDFCSVGAPGLVLASLQIERPMSELLFTILAQRNGVNVYHGREVDFKSTVVQGGGQGNKIAVSRGKYDSTPKTIDSALFVDATGRFRQFCSKKAPRHRFDGWNCNAFWGYFTAPKDESKIPFDLYEGDATNHLCFPEGWVWVIRLPSWEGSLIANLMDMVTYILECADAGVPGDELPSSEELARMFGLKFQWVTSIGFAVRNDVKYPEDLSAYGTREAEQKFNYFVQKYELLQQFMSNFELIENLYGPGTTWFIRKTLAYQSPVVSGPGWLAIGDACGFTNPLYSPGINVGMSTSTWAAQLSHRIVEIGKSAPADAAESSIRKLLVPYDDYCKSLVPALEQMNRFNYVCYRDTRLGPQVACLWQFFAGIERYLSDVNIETFAHYAIKWVWGAMVPEYQQVAQKCIEHIETVPLDERLPDAMVDELLAFSNRIKSAAVAADDFSLRWDAILRSFDRSLNFVEGKTSRDIYTRQCSGCGAWLQLRPDWKKCHSCGLLGTEPQTAVTFDPPLTAEEEALLYAAWNTAPKYDPSKELKLPTPTRPAA | – | site-selectivity profile of bromination (bromination of compound 2): same product profile as the wild-type MalA; site-selectivity of chlorination (chlorination of compound 2, C8 versus C9): selective for producing the C9-chlorinated compound 3 |

— patent publication US12252714B2, “Halogenation of complex organic compounds” (REGENTS OF THE UNIVERSITY OF MICHIGAN, priority 2018, dated 2025)
